From patent publication US20260001928A1 (CORTERIA PHARMACEUTICALS, priority 2022, published 2026)
*1 amine or outer side, *2 acyl side, *3 side chain or, on linkers, in order; H or OH if unused. Side-chain parts run from the residue outwards. [ ]: non-standard residue; d: D form. The star is where a group is joined. C20 diacid = O=C(O)CCCCCCCCCCCCCCCCCCC(=O)*; C18 diacid = O=C(O)CCCCCCCCCCCCCCCCC(=O)*; C16 diacid = O=C(O)CCCCCCCCCCCCCCC(=O)*; γGlu = O=C(O)[C@H](CCC(=O)[*:2])N[*:1]; Api = NC1(C(=O)O)CCNCC1; AEEA = NCCOCCOCC(=O)O; Aib = CC(C)(N)C(=O)O; Butyryl = CCCC(=O)*

T1: CRF1R receptor (UniProt P34998 24-415, limits assumed)
T1 sequence (looked up): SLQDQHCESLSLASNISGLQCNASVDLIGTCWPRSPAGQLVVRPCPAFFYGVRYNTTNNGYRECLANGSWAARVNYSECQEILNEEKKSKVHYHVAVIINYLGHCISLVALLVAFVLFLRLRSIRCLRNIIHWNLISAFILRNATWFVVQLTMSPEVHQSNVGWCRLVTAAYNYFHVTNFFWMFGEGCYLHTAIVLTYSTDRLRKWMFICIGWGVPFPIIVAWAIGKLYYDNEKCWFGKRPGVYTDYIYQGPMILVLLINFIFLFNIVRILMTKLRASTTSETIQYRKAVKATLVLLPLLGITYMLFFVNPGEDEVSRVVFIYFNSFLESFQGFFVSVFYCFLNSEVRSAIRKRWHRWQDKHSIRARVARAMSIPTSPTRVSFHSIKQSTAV

B1: SEQ ID NO 207 (peptide)
peptide: Ac-IVLSLD[dV]PIKLK([γGlu-C20 diacid])KILLEQEKQKKQREQAETN[Api]QILAQV-NH2
SMILES: CC[C@H](C)[C@H](NC(C)=O)C(=O)N[C@H](C(=O)N[C@@H](CC(C)C)C(=O)N[C@@H](CO)C(=O)N[C@@H](CC(C)C)C(=O)N[C@@H](CC(=O)O)C(=O)N[C@@H](C(=O)N1CCC[C@H]1C(=O)N[C@H](C(=O)N[C@@H](CCCCN)C(=O)N[C@@H](CC(C)C)C(=O)N[C@@H](CCCCNC(=O)CC[C@H](NC(=O)CCCCCCCCCCCCCCCCCCC(=O)O)C(=O)O)C(=O)N[C@@H](CCCCN)C(=O)N[C@H](C(=O)N[C@@H](CC(C)C)C(=O)N[C@@H](CC(C)C)C(=O)N[C@@H](CCC(=O)O)C(=O)N[C@@H](CCC(N)=O)C(=O)N[C@@H](CCC(=O)O)C(=O)N[C@@H](CCCCN)C(=O)N[C@@H](CCC(N)=O)C(=O)N[C@@H](CCCCN)C(=O)N[C@@H](CCCCN)C(=O)N[C@@H](CCC(N)=O)C(=O)N[C@@H](CCCNC(=N)N)C(=O)N[C@@H](CCC(=O)O)C(=O)N[C@@H](CCC(N)=O)C(=O)N[C@@H](C)C(=O)N[C@@H](CCC(=O)O)C(=O)N[C@H](C(=O)N[C@@H](CC(N)=O)C(=O)NC1(C(=O)N[C@@H](CCC(N)=O)C(=O)N[C@H](C(=O)N[C@@H](CC(C)C)C(=O)N[C@@H](C)C(=O)N[C@@H](CCC(N)=O)C(=O)N[C@H](C(N)=O)C(C)C)[C@@H](C)CC)CCNCC1)[C@@H](C)O)[C@@H](C)CC)[C@@H](C)CC)C(C)C)C(C)C
B2: SEQ ID NO 7 (peptide)
peptide: Butyryl-VLSLD[dV]PIKLK([γGlu-C16 diacid])QILLKQERQKKQREQAEKNKQILEQV-NH2
SMILES: CCCC(=O)N[C@H](C(=O)N[C@@H](CC(C)C)C(=O)N[C@@H](CO)C(=O)N[C@@H](CC(C)C)C(=O)N[C@@H](CC(=O)O)C(=O)N[C@@H](C(=O)N1CCC[C@H]1C(=O)N[C@H](C(=O)N[C@@H](CCCCN)C(=O)N[C@@H](CC(C)C)C(=O)N[C@@H](CCCCNC(=O)CC[C@H](NC(=O)CCCCCCCCCCCCCCC(=O)O)C(=O)O)C(=O)N[C@@H](CCC(N)=O)C(=O)N[C@H](C(=O)N[C@@H](CC(C)C)C(=O)N[C@@H](CC(C)C)C(=O)N[C@@H](CCCCN)C(=O)N[C@@H](CCC(N)=O)C(=O)N[C@@H](CCC(=O)O)C(=O)N[C@@H](CCCNC(=N)N)C(=O)N[C@@H](CCC(N)=O)C(=O)N[C@@H](CCCCN)C(=O)N[C@@H](CCCCN)C(=O)N[C@@H](CCC(N)=O)C(=O)N[C@@H](CCCNC(=N)N)C(=O)N[C@@H](CCC(=O)O)C(=O)N[C@@H](CCC(N)=O)C(=O)N[C@@H](C)C(=O)N[C@@H](CCC(=O)O)C(=O)N[C@@H](CCCCN)C(=O)N[C@@H](CC(N)=O)C(=O)N[C@@H](CCCCN)C(=O)N[C@@H](CCC(N)=O)C(=O)N[C@H](C(=O)N[C@@H](CC(C)C)C(=O)N[C@@H](CCC(=O)O)C(=O)N[C@@H](CCC(N)=O)C(=O)N[C@H](C(N)=O)C(C)C)[C@@H](C)CC)[C@@H](C)CC)[C@@H](C)CC)C(C)C)C(C)C
B3: SEQ ID NO 208 (peptide)
peptide: Ac-IVLSLD[dV]PIKLK([γGlu-C20 diacid])KILLEQEKQK[Aib]QREQAETN[Api]QILAQV-NH2
SMILES: CC[C@H](C)[C@H](NC(C)=O)C(=O)N[C@H](C(=O)N[C@@H](CC(C)C)C(=O)N[C@@H](CO)C(=O)N[C@@H](CC(C)C)C(=O)N[C@@H](CC(=O)O)C(=O)N[C@@H](C(=O)N1CCC[C@H]1C(=O)N[C@H](C(=O)N[C@@H](CCCCN)C(=O)N[C@@H](CC(C)C)C(=O)N[C@@H](CCCCNC(=O)CC[C@H](NC(=O)CCCCCCCCCCCCCCCCCCC(=O)O)C(=O)O)C(=O)N[C@@H](CCCCN)C(=O)N[C@H](C(=O)N[C@@H](CC(C)C)C(=O)N[C@@H](CC(C)C)C(=O)N[C@@H](CCC(=O)O)C(=O)N[C@@H](CCC(N)=O)C(=O)N[C@@H](CCC(=O)O)C(=O)N[C@@H](CCCCN)C(=O)N[C@@H](CCC(N)=O)C(=O)N[C@@H](CCCCN)C(=O)NC(C)(C)C(=O)N[C@@H](CCC(N)=O)C(=O)N[C@@H](CCCNC(=N)N)C(=O)N[C@@H](CCC(=O)O)C(=O)N[C@@H](CCC(N)=O)C(=O)N[C@@H](C)C(=O)N[C@@H](CCC(=O)O)C(=O)N[C@H](C(=O)N[C@@H](CC(N)=O)C(=O)NC1(C(=O)N[C@@H](CCC(N)=O)C(=O)N[C@H](C(=O)N[C@@H](CC(C)C)C(=O)N[C@@H](C)C(=O)N[C@@H](CCC(N)=O)C(=O)N[C@H](C(N)=O)C(C)C)[C@@H](C)CC)CCNCC1)[C@@H](C)O)[C@@H](C)CC)[C@@H](C)CC)C(C)C)C(C)C
B4: SEQ ID NO 205 (peptide)
peptide: Ac-IVLSLD[dV]PIKLK([AEEA-γGlu-γGlu-C18 diacid])KILLEQEKQKKQREQAETN[Aib]QILAQV-NH2
SMILES: CC[C@H](C)[C@H](NC(C)=O)C(=O)N[C@H](C(=O)N[C@@H](CC(C)C)C(=O)N[C@@H](CO)C(=O)N[C@@H](CC(C)C)C(=O)N[C@@H](CC(=O)O)C(=O)N[C@@H](C(=O)N1CCC[C@H]1C(=O)N[C@H](C(=O)N[C@@H](CCCCN)C(=O)N[C@@H](CC(C)C)C(=O)N[C@@H](CCCCNC(=O)COCCOCCNC(=O)CC[C@H](NC(=O)CC[C@H](NC(=O)CCCCCCCCCCCCCCCCC(=O)O)C(=O)O)C(=O)O)C(=O)N[C@@H](CCCCN)C(=O)N[C@H](C(=O)N[C@@H](CC(C)C)C(=O)N[C@@H](CC(C)C)C(=O)N[C@@H](CCC(=O)O)C(=O)N[C@@H](CCC(N)=O)C(=O)N[C@@H](CCC(=O)O)C(=O)N[C@@H](CCCCN)C(=O)N[C@@H](CCC(N)=O)C(=O)N[C@@H](CCCCN)C(=O)N[C@@H](CCCCN)C(=O)N[C@@H](CCC(N)=O)C(=O)N[C@@H](CCCNC(=N)N)C(=O)N[C@@H](CCC(=O)O)C(=O)N[C@@H](CCC(N)=O)C(=O)N[C@@H](C)C(=O)N[C@@H](CCC(=O)O)C(=O)N[C@H](C(=O)N[C@@H](CC(N)=O)C(=O)NC(C)(C)C(=O)N[C@@H](CCC(N)=O)C(=O)N[C@H](C(=O)N[C@@H](CC(C)C)C(=O)N[C@@H](C)C(=O)N[C@@H](CCC(N)=O)C(=O)N[C@H](C(N)=O)C(C)C)[C@@H](C)CC)[C@@H](C)O)[C@@H](C)CC)[C@@H](C)CC)C(C)C)C(C)C
B5: SEQ ID NO 206 (peptide)
peptide: Ac-IVLSLD[dV]PIKLK([γGlu-C20 diacid])KILLEQEKQKKQREQAETN[Aib]QILAQV-NH2
SMILES: CC[C@H](C)[C@H](NC(C)=O)C(=O)N[C@H](C(=O)N[C@@H](CC(C)C)C(=O)N[C@@H](CO)C(=O)N[C@@H](CC(C)C)C(=O)N[C@@H](CC(=O)O)C(=O)N[C@@H](C(=O)N1CCC[C@H]1C(=O)N[C@H](C(=O)N[C@@H](CCCCN)C(=O)N[C@@H](CC(C)C)C(=O)N[C@@H](CCCCNC(=O)CC[C@H](NC(=O)CCCCCCCCCCCCCCCCCCC(=O)O)C(=O)O)C(=O)N[C@@H](CCCCN)C(=O)N[C@H](C(=O)N[C@@H](CC(C)C)C(=O)N[C@@H](CC(C)C)C(=O)N[C@@H](CCC(=O)O)C(=O)N[C@@H](CCC(N)=O)C(=O)N[C@@H](CCC(=O)O)C(=O)N[C@@H](CCCCN)C(=O)N[C@@H](CCC(N)=O)C(=O)N[C@@H](CCCCN)C(=O)N[C@@H](CCCCN)C(=O)N[C@@H](CCC(N)=O)C(=O)N[C@@H](CCCNC(=N)N)C(=O)N[C@@H](CCC(=O)O)C(=O)N[C@@H](CCC(N)=O)C(=O)N[C@@H](C)C(=O)N[C@@H](CCC(=O)O)C(=O)N[C@H](C(=O)N[C@@H](CC(N)=O)C(=O)NC(C)(C)C(=O)N[C@@H](CCC(N)=O)C(=O)N[C@H](C(=O)N[C@@H](CC(C)C)C(=O)N[C@@H](C)C(=O)N[C@@H](CCC(N)=O)C(=O)N[C@H](C(N)=O)C(C)C)[C@@H](C)CC)[C@@H](C)O)[C@@H](C)CC)[C@@H](C)CC)C(C)C)C(C)C
B6: SEQ ID NO 204 (peptide)
peptide: Ac-IVLSLD[dV]PIKLK([AEEA-AEEA-γGlu-γGlu-C18 diacid])KILLEQEKQKKQREQAETN[Aib]QILAQV-NH2
SMILES: CC[C@H](C)[C@H](NC(C)=O)C(=O)N[C@H](C(=O)N[C@@H](CC(C)C)C(=O)N[C@@H](CO)C(=O)N[C@@H](CC(C)C)C(=O)N[C@@H](CC(=O)O)C(=O)N[C@@H](C(=O)N1CCC[C@H]1C(=O)N[C@H](C(=O)N[C@@H](CCCCN)C(=O)N[C@@H](CC(C)C)C(=O)N[C@@H](CCCCNC(=O)COCCOCCNC(=O)COCCOCCNC(=O)CC[C@H](NC(=O)CC[C@H](NC(=O)CCCCCCCCCCCCCCCCC(=O)O)C(=O)O)C(=O)O)C(=O)N[C@@H](CCCCN)C(=O)N[C@H](C(=O)N[C@@H](CC(C)C)C(=O)N[C@@H](CC(C)C)C(=O)N[C@@H](CCC(=O)O)C(=O)N[C@@H](CCC(N)=O)C(=O)N[C@@H](CCC(=O)O)C(=O)N[C@@H](CCCCN)C(=O)N[C@@H](CCC(N)=O)C(=O)N[C@@H](CCCCN)C(=O)N[C@@H](CCCCN)C(=O)N[C@@H](CCC(N)=O)C(=O)N[C@@H](CCCNC(=N)N)C(=O)N[C@@H](CCC(=O)O)C(=O)N[C@@H](CCC(N)=O)C(=O)N[C@@H](C)C(=O)N[C@@H](CCC(=O)O)C(=O)N[C@H](C(=O)N[C@@H](CC(N)=O)C(=O)NC(C)(C)C(=O)N[C@@H](CCC(N)=O)C(=O)N[C@H](C(=O)N[C@@H](CC(C)C)C(=O)N[C@@H](C)C(=O)N[C@@H](CCC(N)=O)C(=O)N[C@H](C(N)=O)C(C)C)[C@@H](C)CC)[C@@H](C)O)[C@@H](C)CC)[C@@H](C)CC)C(C)C)C(C)C

Target: human corticotropin-releasing factor 2a (CRF2a receptor) (human), Q13324
Test: cell-based or functional assay

human corticotropin-releasing factor 2a (CRF2a receptor) (human), Q13324, sequence (Q13324 20-411): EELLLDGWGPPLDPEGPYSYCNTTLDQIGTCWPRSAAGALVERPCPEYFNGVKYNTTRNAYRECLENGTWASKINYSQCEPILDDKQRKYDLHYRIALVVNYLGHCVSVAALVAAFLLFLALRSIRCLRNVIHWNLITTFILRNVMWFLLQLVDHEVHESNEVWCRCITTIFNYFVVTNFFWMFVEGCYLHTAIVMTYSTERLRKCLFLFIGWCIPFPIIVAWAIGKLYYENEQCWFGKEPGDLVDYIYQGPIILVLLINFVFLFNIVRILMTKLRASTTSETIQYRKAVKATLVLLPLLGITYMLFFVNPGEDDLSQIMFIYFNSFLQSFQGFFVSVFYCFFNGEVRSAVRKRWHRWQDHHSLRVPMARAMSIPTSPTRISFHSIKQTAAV

EC50 [nM] (cAMP) | Binder
0.12 | B1
0.06 | B2
0.15 | B3
1.43 | B4
0.11 | B5
1.84 | B6

Target: T1, CRF1R receptor
Test: cell-based or functional assay

EC50 [nM] | Emax (% I) [%] | Binder
61.4 | 65 | B1
101 | 59 | B2
83.9 | 63 | B3
– | 1 | B4
224 | 42 | B5
– | -2 | B6
